Source: paper PMC5053885

Each substance was assayed against Karyopherin-β2 (human) (UniProt Q92973) (assay: ITC).
Chain of UniProt Q92973 (Q92973 9-898): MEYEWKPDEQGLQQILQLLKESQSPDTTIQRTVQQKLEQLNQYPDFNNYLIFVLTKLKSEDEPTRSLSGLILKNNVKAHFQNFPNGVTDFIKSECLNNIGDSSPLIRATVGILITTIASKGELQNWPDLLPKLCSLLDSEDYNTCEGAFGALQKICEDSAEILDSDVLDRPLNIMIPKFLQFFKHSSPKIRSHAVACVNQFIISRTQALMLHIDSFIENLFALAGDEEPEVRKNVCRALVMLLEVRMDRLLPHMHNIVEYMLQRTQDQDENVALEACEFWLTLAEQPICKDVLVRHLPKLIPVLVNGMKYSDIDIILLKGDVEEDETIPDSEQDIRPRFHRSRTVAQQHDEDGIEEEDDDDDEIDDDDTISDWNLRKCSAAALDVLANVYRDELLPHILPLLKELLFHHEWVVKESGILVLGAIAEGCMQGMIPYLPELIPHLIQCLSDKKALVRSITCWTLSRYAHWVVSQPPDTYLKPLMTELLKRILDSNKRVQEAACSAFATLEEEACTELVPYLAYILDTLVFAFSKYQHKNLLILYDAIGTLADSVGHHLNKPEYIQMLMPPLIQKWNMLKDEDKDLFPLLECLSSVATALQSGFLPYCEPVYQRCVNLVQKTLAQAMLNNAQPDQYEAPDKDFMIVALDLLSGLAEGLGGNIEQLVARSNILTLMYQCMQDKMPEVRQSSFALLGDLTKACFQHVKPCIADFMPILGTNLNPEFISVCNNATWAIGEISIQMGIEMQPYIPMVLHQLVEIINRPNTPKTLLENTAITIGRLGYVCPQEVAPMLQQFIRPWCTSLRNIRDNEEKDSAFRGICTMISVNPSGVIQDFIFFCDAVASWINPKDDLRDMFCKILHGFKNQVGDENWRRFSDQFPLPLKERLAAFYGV
Substance “MBP-H3 Tail(1–47) K18A (from UniProt P68431 2-48) (domain or fragment)” has a Kd of 120 nM. “MBP-H3 Tail(1–47) K23A (from UniProt P68431 2-48) (domain or fragment)” showed a Kd of 148 nM. “MBP-H3 Tail(1–47) K23A, R26A, K27A (from UniProt P68431 2-48) (domain or fragment)” showed a Kd of 119 nM. Work on “MBP-H3 Tail(1–47) K27A (from UniProt P68431 2-48) (domain or fragment)” yielded a Kd of 133 nM. “MBP-H3 Tail(1–47) R17A (from UniProt P68431 2-48) (domain or fragment)” was tested, and the Kd was 389 nM. “MBP-H3 Tail(1–47) R26A (from UniProt P68431 2-48) (domain or fragment)” was tested, and the Kd was 122 nM. “MBP-H3 Tail(1–47) wild-type (from UniProt P68431 2-48) (domain or fragment)” was tested, and the Kd was 77.1 nM.
